# Experimental data reported in patent US20050089961A1 (NEUROMED PHARMACEUTICALS, published 2005).
# Target: rat α1B+β1b calcium channel (N-type calcium channel) (rat, UniProt Q02294 1-2336; P54283 1-597)
# Experiment: cell-based or functional assay
# Chain of rat α1B+β1b calcium channel (N-type calcium channel) (Q02294 whole entry, chain 1 of 2): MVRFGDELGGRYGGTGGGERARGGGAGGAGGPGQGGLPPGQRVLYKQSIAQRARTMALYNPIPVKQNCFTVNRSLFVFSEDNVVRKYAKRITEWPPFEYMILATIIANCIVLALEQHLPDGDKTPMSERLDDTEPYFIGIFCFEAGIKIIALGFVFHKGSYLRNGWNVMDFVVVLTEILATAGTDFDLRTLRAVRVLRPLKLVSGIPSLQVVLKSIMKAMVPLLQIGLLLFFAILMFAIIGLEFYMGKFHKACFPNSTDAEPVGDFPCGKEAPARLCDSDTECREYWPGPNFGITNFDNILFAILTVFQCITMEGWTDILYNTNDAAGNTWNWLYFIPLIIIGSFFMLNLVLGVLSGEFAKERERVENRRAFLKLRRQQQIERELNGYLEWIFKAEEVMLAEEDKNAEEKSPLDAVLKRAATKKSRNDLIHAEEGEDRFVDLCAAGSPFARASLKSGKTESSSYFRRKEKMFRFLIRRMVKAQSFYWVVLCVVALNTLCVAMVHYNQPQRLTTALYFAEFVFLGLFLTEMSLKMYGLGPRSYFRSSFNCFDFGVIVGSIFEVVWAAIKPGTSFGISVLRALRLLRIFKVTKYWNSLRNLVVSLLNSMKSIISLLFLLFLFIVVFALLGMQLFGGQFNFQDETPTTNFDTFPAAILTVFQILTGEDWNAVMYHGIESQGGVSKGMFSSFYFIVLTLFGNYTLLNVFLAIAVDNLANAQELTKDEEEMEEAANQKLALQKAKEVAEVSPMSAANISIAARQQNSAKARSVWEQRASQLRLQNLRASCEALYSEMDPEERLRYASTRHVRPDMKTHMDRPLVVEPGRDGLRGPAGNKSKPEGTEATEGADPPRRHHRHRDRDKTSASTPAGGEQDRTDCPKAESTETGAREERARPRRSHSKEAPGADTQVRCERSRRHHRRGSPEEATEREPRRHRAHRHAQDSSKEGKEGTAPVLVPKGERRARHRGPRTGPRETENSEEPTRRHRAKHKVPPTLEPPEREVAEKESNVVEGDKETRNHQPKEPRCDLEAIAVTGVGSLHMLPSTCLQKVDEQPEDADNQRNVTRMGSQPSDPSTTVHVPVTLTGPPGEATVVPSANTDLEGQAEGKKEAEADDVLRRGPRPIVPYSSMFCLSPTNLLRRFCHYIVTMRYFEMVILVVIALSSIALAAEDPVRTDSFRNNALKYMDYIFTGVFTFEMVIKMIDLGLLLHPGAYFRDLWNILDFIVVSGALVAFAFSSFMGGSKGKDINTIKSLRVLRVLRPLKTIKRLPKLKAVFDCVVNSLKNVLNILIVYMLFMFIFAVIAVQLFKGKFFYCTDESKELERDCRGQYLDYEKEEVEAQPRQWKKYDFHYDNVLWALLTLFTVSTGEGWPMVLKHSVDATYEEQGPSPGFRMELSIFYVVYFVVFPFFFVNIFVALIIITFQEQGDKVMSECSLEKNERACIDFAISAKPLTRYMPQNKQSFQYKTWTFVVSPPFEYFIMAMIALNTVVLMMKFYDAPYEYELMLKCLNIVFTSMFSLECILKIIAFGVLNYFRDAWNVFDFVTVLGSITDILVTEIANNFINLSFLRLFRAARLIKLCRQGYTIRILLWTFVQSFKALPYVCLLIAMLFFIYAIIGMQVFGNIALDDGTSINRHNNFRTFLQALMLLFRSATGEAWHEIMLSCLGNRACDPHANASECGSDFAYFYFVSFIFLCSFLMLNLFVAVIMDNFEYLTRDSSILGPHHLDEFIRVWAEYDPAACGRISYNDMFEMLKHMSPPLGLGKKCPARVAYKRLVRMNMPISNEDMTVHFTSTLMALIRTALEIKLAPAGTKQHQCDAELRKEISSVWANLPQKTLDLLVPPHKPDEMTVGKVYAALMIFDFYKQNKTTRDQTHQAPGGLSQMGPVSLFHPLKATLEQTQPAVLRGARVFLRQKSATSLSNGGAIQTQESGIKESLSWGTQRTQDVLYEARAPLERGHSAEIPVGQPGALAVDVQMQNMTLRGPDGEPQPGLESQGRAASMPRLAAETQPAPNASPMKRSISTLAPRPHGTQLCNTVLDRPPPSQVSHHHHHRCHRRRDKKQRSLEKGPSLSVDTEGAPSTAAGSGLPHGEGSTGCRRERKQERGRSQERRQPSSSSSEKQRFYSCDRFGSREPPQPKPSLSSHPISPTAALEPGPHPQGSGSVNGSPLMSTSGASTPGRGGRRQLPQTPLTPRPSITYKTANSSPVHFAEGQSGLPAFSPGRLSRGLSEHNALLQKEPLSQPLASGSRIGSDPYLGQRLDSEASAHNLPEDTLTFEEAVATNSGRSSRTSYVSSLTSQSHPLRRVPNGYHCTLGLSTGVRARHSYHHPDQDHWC
# Chain of rat α1B+β1b calcium channel (N-type calcium channel) (P54283 whole entry, chain 2 of 2): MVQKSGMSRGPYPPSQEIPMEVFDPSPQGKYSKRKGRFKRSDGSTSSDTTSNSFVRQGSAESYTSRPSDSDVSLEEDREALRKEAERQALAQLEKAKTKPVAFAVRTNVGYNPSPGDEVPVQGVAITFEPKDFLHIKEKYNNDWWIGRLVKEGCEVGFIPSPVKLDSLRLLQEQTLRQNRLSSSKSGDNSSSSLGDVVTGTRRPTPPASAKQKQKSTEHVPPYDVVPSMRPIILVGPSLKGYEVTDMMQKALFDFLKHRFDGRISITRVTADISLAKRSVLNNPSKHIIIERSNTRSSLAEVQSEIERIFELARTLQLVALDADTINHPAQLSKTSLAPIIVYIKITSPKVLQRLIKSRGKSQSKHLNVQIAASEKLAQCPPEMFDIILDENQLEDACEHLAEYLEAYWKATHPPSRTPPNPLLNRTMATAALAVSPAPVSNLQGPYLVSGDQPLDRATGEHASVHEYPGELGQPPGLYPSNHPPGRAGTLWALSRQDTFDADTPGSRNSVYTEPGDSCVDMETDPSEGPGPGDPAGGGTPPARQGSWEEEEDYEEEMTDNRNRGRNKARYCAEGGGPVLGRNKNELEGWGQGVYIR
binder,measurement,value
full-length chicken α2δ-1 calcium channel subunit (other) HSSEGPFPSPTTIKSWVDKMQEDLITLARTASGVEQLAAIYLKNKDLYTVEANNPRQLVEIAARDIEKLLSNRSKALVRLAKEAEKYQASHQWRDEFGNNDIIYYNAKDDQNDPEKNDTESGSQRIRPVFEEDPVFRRQTSYQHAAVHIPTDIYEGSTIVLNELNWTAALDDVFKRNREEDPTLLWQVFGSATGLARYYPASPWVDNSRTPNKIDLYDVRRRPWYIQGAASPKDMLILVDASGSVSGLTLKLIRTSVIEMLETLSDDDFVNVVSFNNNAQNVSCFNHLVQANVRNKKKLKEAVDKISAKGITDYKKGFSYAFEQLLNHSVSRANCNKIIMLFTDGGEERAQEIFHKYNEDKKVRVFTFSVGQHNYDKGPIQWMACENKGYYYEIPSIGAIRINTQEYLDVLGRPMVLAGEKAKQVQWTNVYLDALELGLVITGTLPVFNLTKEQNGKINQLILGVMGVDVSLEDIKKLTPRFTLCPNGYYFAIDPNGYVLLHPNLQPKNPKSQEPVTLDFLDAELENDIKVEIRKKMIDGESGEKTFETLVKSQDERYIDKGNRTYTWTAVNGTDYSLALVLPSYSFYYIKAKIEEPITQARLEIKKDSETLKIDHFDEAGYTFIAPREYCTDVKKSENNTEFLLNFNEFIDRNTPSSPSCNTDMVIRVLLDAGFTNELAQNYWSKLYLDGVVAQFVVTDGGITRVFPKRAGEDWLENAETYEVSFYKRSLDNDNYIFTAPYYNKSGANSYESGIMVSKAVEITINGKLLKPAVVGIKIDAMKWMENFTTTTIKSLCNSEICGCEKNSMHVDCVILDDGGFLLMSNRDEYTHQIGRFFGEIDPGLMRNLINMSLYAFNKSYDYQSVCDPEEEPKQGAGLRSAYVPTIADILQLGWWASAAAWSILQQLFLSLTFPRFLEAADMEDDDFSTALPKTSCITEQTQYFFENDDKSFIGIVDCINCSRLYHAEKISNTNLVFIISDSQLLCRSCDPKPLMQAEKPDEGPNPCEMVKQPRYRKGPDVCFDEAKQEDSADCGGASGLSPSLWSMVGIQLVLLWLLSGSRHYQL,"current density (Ipeak/cell capacitance), whole-cell patch clamp, fold increase on coexpression",~10 fold
